Data set [1] deals with the molecule itself. Description: crystal structure.
Data set [2] concerns the molecule itself. Description: crystal structure. This is another data set of the same source.
Data set [3] deals with the molecule itself. Description: SAXS with inline size-exclusion chromatography. A general note: SEC sorts molecules by how far they enter the pores of the column.

By stoichiometry N is commonly meant the number of molecules, sites or subunits per partner or assembly.

B1: N-terminal SPOUT domain of TrmJ of Escherichia coli (EcTrmJ1-164) (domain or fragment, E. coli, UniProt P0AE01 1-164, looked up)
chain: MLQNIRIVLVETSHTGNMGSVARAMKTMGLTNLWLVNPLVKPDSQAIALAAGASDVIGNAHIVDTLDEALAGCSLVVGTSARSRTLPWPMLDPRECGLKSVAEAANTPVALVFGRERVGLTNEELQKCHYHVAIAANPEYSSLNLAMAVQVIAYEVRMAWLATQ
In the case of B1, the “stoichiometry N” value in “crystal structure [1]” stood at 2.

B2: N-terminal SPOUT domain of TrmJ of Sulfolobus acidocaldarius (SaTrmJ1-157) (domain or fragment, UniProt Q4JB16 1-157, looked up)
chain: MTIRLVIVEPEGAYNLGFIARLVKNFLIDEFYVVNPKADINEAIKFSAKGSEVIEKMMKITNNFDDAIRDVDLKIATSSIADIKGDLLRKSIRPIDLERLIKDKKVAFIFGRESVGLTREEIAKSDFLLFIPANPEYPVLNLSHAVGIVLYELWRNR
Turning to B2, in “crystal structure [2]”, the “stoichiometry N” value came to 2.

B3: C-terminal domain of TrmJ of Escherichia coli (EcTrmJ167-246) (domain or fragment, E. coli, UniProt P0AE01 167-246, looked up)
chain: GEQVEHEETPYPLVDDLERFYGHLEQTLLATGFIRENHPGQVMNKLRRLFTRARPESQELNILRGILASIEQQNKGNKAE
With B3, in data set [3], the “stoichiometry N” value is 2.

For the origin of these results see paper PMC4105751 (RNA, 2014).
